For assay [1], the target named is T1, soluble mouse GPNMB (recombinant extracellular domain) (mouse, UniProt Q99P91 23-502).
T1 construct: also called moGPNMB; not shown: C-terminal polyhistidine or Avi-His tag
T1 sequence: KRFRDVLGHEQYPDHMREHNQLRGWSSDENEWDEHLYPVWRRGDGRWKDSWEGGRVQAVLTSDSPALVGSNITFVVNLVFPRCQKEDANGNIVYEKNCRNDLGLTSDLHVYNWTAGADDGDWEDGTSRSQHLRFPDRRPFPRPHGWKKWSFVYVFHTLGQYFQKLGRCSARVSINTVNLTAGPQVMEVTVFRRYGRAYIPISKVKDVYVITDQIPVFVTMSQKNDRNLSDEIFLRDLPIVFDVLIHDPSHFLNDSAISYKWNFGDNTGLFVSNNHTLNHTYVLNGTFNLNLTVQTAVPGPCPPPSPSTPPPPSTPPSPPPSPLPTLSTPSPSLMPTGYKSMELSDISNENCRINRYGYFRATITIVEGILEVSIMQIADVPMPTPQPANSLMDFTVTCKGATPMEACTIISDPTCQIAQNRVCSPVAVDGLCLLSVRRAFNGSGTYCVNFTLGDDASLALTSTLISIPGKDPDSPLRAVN
In words: SPR Carterra, Ab immobilized. The essentials: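 Antibodies amine-coupled on HC200M chip in a 96-spot array; recombinant GPNMB ECD analytes injected at 2.5–600 nM, lowest to highest, without regeneration. Running buffer HBS-EP+ with 0.5 mg/ml BSA; two buffer blanks between species series. Kinetics fitted to yield affinity estimates.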

Assay [2] addresses T2, soluble cynomolgus GPNMB (recombinant extracellular domain) (cynomolgus, UniProt Q14956 23-499 (human entry), limits assumed).
T2 chain: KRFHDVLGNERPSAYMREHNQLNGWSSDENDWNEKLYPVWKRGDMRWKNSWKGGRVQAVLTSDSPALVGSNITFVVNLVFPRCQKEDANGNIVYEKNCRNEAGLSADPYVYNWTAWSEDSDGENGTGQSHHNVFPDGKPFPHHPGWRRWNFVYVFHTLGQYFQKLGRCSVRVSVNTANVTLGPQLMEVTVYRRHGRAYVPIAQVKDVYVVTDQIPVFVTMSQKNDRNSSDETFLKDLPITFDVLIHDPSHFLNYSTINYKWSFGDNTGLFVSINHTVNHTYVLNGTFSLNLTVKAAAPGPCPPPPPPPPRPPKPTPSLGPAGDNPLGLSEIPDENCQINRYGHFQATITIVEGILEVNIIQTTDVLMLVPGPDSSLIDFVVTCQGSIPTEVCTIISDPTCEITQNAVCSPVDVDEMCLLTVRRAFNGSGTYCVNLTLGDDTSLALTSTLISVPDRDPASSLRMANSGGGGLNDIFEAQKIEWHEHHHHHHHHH
Put plainly: SPR binding. The protocol: Binding kinetics of human anti-GPNMB IgG1 antibodies of the present disclosure to human, cynomolgus, and mouse GPNMB were evaluated using a Carterra LSA instrument (Carterra, Salt Lake City, UT). […] A HC200M sensor chip (Carterra) was activated using the single channel flow cell with a 7-minute injection of a 1:1:1 mixture of 100 mM MES pH 5.5, 100 mM sulfo-NHS, 400 mM EDC (all reconstituted in MES pH 5.5; 100 μl of each mixed in vial immediately before running assay). After switching to the multi-channel array flow cell, the antibodies were injected over the activated chip in a 96-spot array for 15 minutes. The remaining unconjugated active groups on the chip were then blocked by injecting 1M Ethanolamine pH 8.5 (Carterra) for 7 minutes using the single channel flow cell.
After priming with running buffer (HBS-EP+, Teknova) with 0.5 mg/ml BSA (Sigma), the immobilized anti-GPNMB antibodies were tested for their ability to bind to several forms of recombinant GPNMB extracellular domain, including human, cynomolgus, and mouse orthologs as described above. Estimates of affinity were generated by injecting each analyte over the entire antibody array using the single channel flow cell. GPNMB analytes were diluted to 2.5, 7.4, 22, 67, 200, and 600 nM in running buffer, and injected in serial from lowest to highest concentration without regeneration. Two buffer blanks were run between each series (one species per series). Data were processed and analyzed using Kinetics high-throughput kinetics analysis software (Carterra).
A general note: In SPR one partner is held on a chip, and binding of the other changes the refractive index at the surface.

The values below come from patent US20250270343A1 (Alector, published 2025).

Positions count from the first letter of the chain named.

B1: anti-GPNMB antibody GPN-41 (antibody, human IgG1, V domains shown)
VH: QLQLQQSGTEVVKPGASVKIPCKASGYAFSSYWMNWVKQRPGKGLEWIGQIYPGDGDTNDNGKFEGKATLTVDKSSNTAYIQLSSLTSEDSAVYFCARSPLHLRGSMDYWGQGTSVTVSS
VL: SIVMTQTPKFLLVSAGDRVTITCKASQSVSNDVAWFQQKPGQSPELLIYSASNRYTGVPDRFTASGYGTDFTFTISAVQAEDLAVYFCQQNYYSPFTFGGGTRLEIK
notes: chimeric
A word on the Kd: it is the constant that tells how readily two partners part at equilibrium. Broadly, the koff is the rate constant with which the complex falls apart. A word on the kon: it is the second-order rate constant of association. Turning to B1, in assay [1], the Kd came out at 0.4 nM, the koff stood at 3.7e-05 s⁻¹ and the kon was found to be 97000 M⁻¹ s⁻¹. Moreover, the binding result in assay [2] is reported as “binds”.

B2: anti-GPNMB antibody GPN-65 (antibody, human IgG1, V domains shown)
VH: B1 VH
VL: B1 VL with A64G, A77T
notes: chimeric
With B2, in assay [1], the Kd worked out at 0.5 nM, the koff came out at 5.1e-05 s⁻¹ and the association rate constant (kon) is 100000 M⁻¹ s⁻¹. Further, the binding result in assay [2] is reported as “binds”.
